Measurements published in publication PMC7522722, “Differential epigenetic regulation between the alternative promoters, PRDM1α and PRDM1β, of the tumour suppressor gene PRDM1 in human multiple myeloma cells”.

B1: wtFOXA1 probe (dsDNA)
DNA 1: GGAAAGTGCAAGTCTGGACATGTTTATCAAGAGG
DNA 2: CCTCTTGATAAACATGTCCAGACTTGCACTTTC
B2: TP53 probe (putative TP53 site, Panomics) (dsDNA)
DNA 1: TACAGAACATGTCTAAGCATGCTGGGG
DNA 2: GCCCCAGCATGCTTAGACATGTTCTGTA

Legend:
[1] = target: T1, TP53 (recombinant human, Calbiochem 506165) (human, UniProt P04637 1-393); test: EMSA; shifted band faded by anti-TP53 antibody; EMSA as in a cited earlier paper; buffer, salt, pH and temperature not given; competitor 100x excess added 10 min before probe; antibody preincubation 1 h on ice; details: protein: commercial; chain copies: 4; label: 32P (Klenow fill-in with [alpha-32P]-dCTP); 5' overhang 1 nt (G) on strand 1, filled in with labelled dC
[2] = target: T1, TP53 (recombinant human, Calbiochem …); test: EMSA; anti-TP53 antibody tested; EMSA as in a cited earlier paper; buffer, salt, pH and temperature not given; competitor 100x excess added 10 min before probe; antibody preincubation 1 h on ice; details: protein: commercial; chain copies: 4; label: 32P (Klenow fill-in with [alpha-32P]-dCTP); 5' overhang 1 nt (G) on strand 2, filled in with labelled dC

T1 sequence (P04637 whole entry): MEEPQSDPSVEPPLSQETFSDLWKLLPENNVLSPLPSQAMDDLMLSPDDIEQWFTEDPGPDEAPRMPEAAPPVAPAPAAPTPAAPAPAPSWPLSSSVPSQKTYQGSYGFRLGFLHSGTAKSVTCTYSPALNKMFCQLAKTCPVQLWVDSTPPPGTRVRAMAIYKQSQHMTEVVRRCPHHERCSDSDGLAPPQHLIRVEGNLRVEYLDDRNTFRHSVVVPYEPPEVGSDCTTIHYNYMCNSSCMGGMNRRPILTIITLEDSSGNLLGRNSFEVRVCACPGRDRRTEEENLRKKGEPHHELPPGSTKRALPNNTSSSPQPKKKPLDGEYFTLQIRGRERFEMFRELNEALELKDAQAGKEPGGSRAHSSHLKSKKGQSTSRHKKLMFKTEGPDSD

Row | Binder | binding result [1] | binding result [2]
1 | B1 | binds | 
2 | B2 |  | binds
